Data set [1] concerns circulating gluten-specific CD4+ T cells in whole blood of HLA-DQ2+ CeD patients. Description: Whole blood IL-2 cytokine release assay, HLA-DQ2+ CeD participants. In kind it is cell-based, human. The settings on record: HLA-DQ2+ participants, 10 μM, 24 hours. An excerpt:
FIGS. 10A-10B are graphs depicting the evaluation of the ability of various molarities of three gliadin polypeptides (Cv6, Av6, and 4K), two peptide mixes containing either the four individual building blocks BB1, BB2a, BB3a and BB4a (BB1-4a) or two Nexvax2 peptides (Nex01/02), and six individual building blocks or peptides (BB1, BB2a, BB3a, BB4a, Nex01, and Nex02) to restimulate gluten-specific T cell collected from HLA-DQ2+ CeD patients using a whole blood IL-2 release assay. The whole blood cytokine release assay was performed in six HLA-DQ2+ participants with biopsy-confirmed celiac disease. Whole blood was stimulated with the three gliadin polypeptide constructs Cv6, Av6, and 4K at 10, 2.5, and 0.5 μM final molarities, as indicated. Alternatively, whole blood was stimulated with a mix of peptides containing either the four building blocks BB1, BB2a, BB3a, and BB4a (BB1-4a) or Nex01 and Nex 02 (Nex01/02) at 10, 2.5, and 0.5 μM final molarities. Building blocks (BB1, BB2a, BB3a, and BB4a), Nex01, and Nex02 were also tested as individual peptides, at a single concentration of 10 μM. After 24 hours of incubation, the concentration of IL-2 was quantified from plasma using an MSD IL-2 S-plex ELISA. Data are expressed in femtogram/mL of plasma (A), or as fold change from the negative control (PBS 1×) (B). Symbols represent individual participants (patient ID); bars represent median+interquartile range of individual values.
The overarching objective of this assay was to validate that the polypeptide constructs (Cv6, Av6, and 4K) can be recognized and processed by human APCs, and they can then promote the activation of gluten-specific effector/memory CD4^+ T cells in CeD patients. A Cytokine Release Assay (CRA) was used (previously described in the literature: Anderson et al., Clinical & Experimental Immunology, 2021 June; 204(3): 321-334; and in Hardy et al., Frontiers in Immunology, 2021, Vol. 12, Article 661662, the entire contents of each of which are incorporated by reference herein). This assay quantifies IL-2 produced by circulating gluten-specific CD4^+ T cells present in the blood of CeD patients upon in vitro stimulation with gluten-derived antigens. Due to the extremely high sensitivity of this CRA, no oral exposure to gluten was required prior to blood sampling.
Informed consent was obtained from all subjects prior to blood collection.
Unfractionated blood (225 μL per well of a 96-well plate) was then rapidly restimulated for 24 hours with each of three of the polypeptide constructs provided herein (SEQ ID NO:23 wherein X is C [Cv6, i.e., SEQ ID NO:49], SEQ ID NO:23 wherein X is A [Av6, i.e., SEQ ID NO:50], and SEQ ID NO:46 [4K]) and with each of four individual building blocks (SEQ ID NO:15 wherein Z is E [BB1], SEQ ID NO:16 wherein Z is E [BB2a], SEQ ID NO:20 wherein Z is E [BB3a], and SEQ ID NO:18 wherein Z is E [BB4a]). The concentrations of the polypeptide constructs ranged from 0.5 to 10 micromolar, and the concentration for each individual building block was 10 micromolar. […] These two peptides comprise an N-terminal pyroglutamate and a C-terminal amide. Nex01 and Nex02 were the two gliadin peptides used in the Nexvax2 immunotherapeutic vaccine that was intended to restore immune tolerance to gluten in HLA-DQ2.5+ CeD patients. A positive control consisted of blood cells stimulated with phytohemagglutinin (PHA) (10 μg/mL) which activates all T cells regardless of their antigen specificity (i.e., a polyclonal activator). Negative controls consisted of cells treated with buffer only (PBS 1×).
After incubation for 24 hours at 37° C. and 5% CO2, plasma was separated from whole blood by centrifugation. Plasma was collected from each well and replicates (n=6 replicates per test) pooled. All plasma samples were frozen at −80° C. until analysis. Single plasma aliquots (100 μL) were thawed and analyzed in duplicate using MSD IL-2 S-plex according to the manufacturer's instructions.

The format of data set [2] is physicochemical. The text has this:
Dimerization appeared to be faster in artificial perspiration and at higher concentration.

The source of these data is patent US20260265316A1, “IMMUNOTHERAPEUTIC METHODS, COMPOUNDS, AND COMPOSITIONS FOR TREATING OR PREVENTING CELIAC DISEASE” (DBV Technologies, priority 2023, published 2026).

B1: QLQPFPQPELPYPQPELPYPQPELPYPQPQPGPRRKKPQPEQPEQPFPEQPQGCRRKKPQQPFPQPEQPFPWQPQGPKKPSGEGSFQPSQENPQ (peptide)
chain: QLQPFPQPELPYPQPELPYPQPELPYPQPQPGPRRKKPQPEQPEQPFPEQPQGCRRKKPQQPFPQPEQPFPWQPQGPKKPSGEGSFQPSQENPQ
Take B1: the “mean IL-2 titer” value in data set [1] stood at 4858 fg/mL. For the same molecule, the “dimer formation in solution (HPLC and LC-MS)” value in data set [2] (faster in artificial perspiration and at higher concentration) was “forms some dimers in solution”.

B2: QLQPFPQPELPYPQPELPYPQPELPYPQPQPKKKKPQPEQPEQPFPEQPQKKKKPQQPFPQPEQPFPWQPQKKKKPSGEGSFQPSQENPQ (peptide)
chain: QLQPFPQPELPYPQPELPYPQPELPYPQPQPKKKKPQPEQPEQPFPEQPQKKKKPQQPFPQPEQPFPWQPQKKKKPSGEGSFQPSQENPQ
With B2, the “mean IL-2 titer” value in data set [1] is given as 7199 fg/mL. For the same molecule, the precipitate in solution entry in data set [2] (pure water, PBS 1×, artificial perspiration, room temperature and 32° C., 24 hours) is “no precipitate was observed”.
